# Residue numbers refer to the chain shown, from its start.
# B1: 8E9 VHH (VHH)
# VHH: QVQLVESGGGLVEAGGSLRLSCVASGSSSSINAMGWYRQAPGKQRELVASISHDGETKYANSVKGRFTISRGNAKNTIYLQMNSLKPEDTAVYYCVGDVAWVVVAGEYDYWGQGTQVTVSS
# B2: 9B2 VHH (VHH)
# VHH: QVQLVESGGGLVQPGGSLRLSCAASGFTLDNYAIGWFRQAPGKEREGVSCISSSDGDTQYADSVKGRFTISRDNAKNTVYLQMNSLKPEDTAVYYCAVEKVYARSWFFHLCSELDFGSWGQGTQVTVSS
# B3: 11F8 VHH (VHH)
# VHH: QVQLVESGGGLVQAGGSLRLSCAASGRTVGYYAVGWFRQAPGKERDFVAAISWSGRNTNYADSVTGRFTIFRDNAKNTVDLQMNSLKPEDTAVYYCAADYWNYGSGSEVPNNYDTWGQGTQVTVSS
# B4: 13C8 VHH (VHH)
# VHH: QVQLVESGGGLVQAGGSLRLSCAASGRTVNKYMTGWFRQTPGKEREFVASIDWSSTTTHYANSVKGRFTISRDKVKNTVYLQMNGLKPEDTAVYYCAAHQDSSYGYTILPIDYDSWGQGTQVTVSS
# B5: 15H1 VHH (VHH)
# VHH: QVQLVESGGGLAQAGGSLRLSCASSGLIFSGSAMGWFRQAPGKEREFVGVISWNGRTTYADSVKGRFTISRDDAVNMVWLQMNNLKPEDTAVYYCAADHLNYGSGDVNPRTYDYWGQGTQVTVSS
# B6: 15H7 VHH (VHH)
# VHH: QVQLVESGGRLVQAGGSLRLSCAAPGRTFRNLTLGWFRQAPGKEREFVASTSWPDDEMTYYTDSVKGRFTISRDNAKNTVYLQMNSLKPEDTAVYYCAAASWSGRSTLSYDYDYWGQGTQVTVST
# B7: 1A11 VHH (VHH)
# VHH: QVQLVESGGGLVQAGGSLRLSCEVSGSIYSINSMGWYRQAPGKQRELVAGIVSDGRINYADSVKGRFTISRAKNTVYLQMNSLKPEDTAVYYCAADRAFVYAGDYDYLGQGTQVTVSS
# B8: 1E4 VHH (VHH)
# VHH: QVLLVESGGGLVQAGGLLRLACSASGRTFTENVMGWFRQAPGKEREFVAAINWNTGSTYYSDSRKGRFTISKDNAKNTMFLQINNLKPEDTAVYYCGGTSSSYYYIGEFIPDYWGQGTQVTVSS
# B9: 19E10 VHH (VHH)
# VHH: QVQLVESGGGLVQPGGSLRLSCVASGSTISINSMGWYRQAPGKAREMVATITNDGPIKYADPVKGRFTISRDNPKNTVYLQMNSLKPEDTAVYYCVADRAYWLAGEWEYWGQGTQVTVSS
# B10: 5D7 VHH (VHH)
# VHH: QVQLVESGGGLVQAGGSLRLSCAASGRTGSRYIMGWFRQAPGKEREFVAAINWRGDSTYYADSVKGRFTIARDNAKNTAYLQMNSLKPEDTAVYYCVADRGESYYYTRSTEYTYWGQGTQVTVSS
# B11: 10B8 VHH (VHH)
# VHH: QVQLVESGGGLVQPGGSLRLSCAASGITLDYYAIAWFRQAPGKEREGVSCFCSSDGDIRYADSVKGRFTISRDNAKNTVYLQMNSLKPEDTAVYYCATERVYSSTWFFHRYSELDFGSWGRGTQVTVSS
# B12: 3D4 VHH (VHH)
# VHH: QVQLVESGGGLVQPGGSLRLSCAASGFTLDLNSIGWFRQAPGKEREGVSCISPSGSRMHYADSVKGRFTISRDNAKNTVYLQMNSLKPEDTAVYYCATGSPSYHYCSMYGLEYDSWGQGTQVTVPS
# B13: 5A6 VHH (VHH)
# VHH: QVQLVESGGGLAQAGGSLRLSCATSGLTFSMSAMGWFRQAPGNEREFVGVINWNGGSSRYADSVRGRFTISRDNAKNTVYLQMNSLKPEDTGVYYCAADALNIGTGEVNPRLYDYWGQGTQVMVSS
# B14: 19C10 VHH (VHH)
# VHH: B12 VHH with G55A, R57S, M58T, S100T, S115D, P125S
# B15: 7A9 VHH (VHH)
# VHH: QVQLVESGGGLVQAGGSLRLSCSASGGTASRSAMGWFRQAPGKEREFVAGISRRNSGSTYVADSYEDSVKGRFTISRDNAKNTIYLQMNSLKPEDTAVYYCAAEPTLGWYVPRRSVEYEYWGQGTQVTVSS
# B16: 19B8 VHH (VHH)
# VHH: QVQLVESGGGLVQAGGSLRLSCAASGRTFTNYAMGWFRQAPGKEREFVAAISWSGGGTNYADSVKGRFTISRDNAKNTVYLQMNSPKPEDTAVYYCATTLGYYGSSSRLYEYWGQGTQVTVSS
# B17: 16H7 VHH (VHH)
# VHH: QVQLVESGGGLVQAGGSLRLSCAASGRAFSKDTMGWFRQAPGKEREFVAVISASGDSTYYADFVKGRFTISRDNAKNTEYLQMNSLKPEDTAVYHCAADGARAYYSINAHRYSWAYNYWGQGTQVTVSS
# B18: 20D11 VHH (VHH)
# VHH: QVQLVESGGGLVQAGGSLRLSCAASGRTSSIYSVGWFRQAPGKERELVAGITWSGGTTYYSDSVKGRFTISRDNAKNTVNLQMNNLKPEDTAIYYCAVDRYSMTMSARDYDYWGQGTQVTVSS
# B19: 5G11 VHH (VHH)
# VHH: B18 VHH with S29F, S33A, E46D, L47F, N80Y, R100T, M105L, D109S
# B20: 11F5 VHH (VHH)
# VHH: QVQLVESGGGAVQAGDSLRLSCTASGRTFSTYAVGWFRQAPGKERELLAAITGSGRNPYYPDSLKGRFTISREYAKLPVYLQMNSLKPEDTAVYYCAARRGAIATMPLDYDHWGQGTQVTVSS
# B21: 14F3 VHH (VHH)
# VHH: B18 VHH with S33G, G50L, R72K, N80F, R100T, D111E
# B22: 6A1 VHH (VHH)
# VHH: QVQLVESGGGLVQAGGSLRLSCTASGNIFSVNVMGWHRQAPGKRRELVAALTNDGRRNYADSVKGRFTISRDNAKNTIYLEMNSLKPEDTAVYYCGTGTLESGFNSWGQGLQVTVSS
# Biological target: SARS-CoV-2 prefusion-stabilized spike protein (SARS-CoV-2-PreS) (SARS-CoV-2, UniProt P0DTC2 14-1208)
# Assay: Biacore, apparent affinity
row,Binder,Kd [nM]
1,B1,5.7
2,B2,0.61
3,B3,0.95
4,B4,12
5,B5,0.6
6,B6,0.33
7,B7,< 0.2
8,B8,0.25
9,B9,0.73
10,B10,1.5
11,B11,< 0.2
12,B12,< 0.2
13,B13,0.46
14,B14,< 50
15,B15,0.22
16,B16,87
17,B17,230
18,B18,2.2
19,B19,93
20,B20,8
21,B21,3
22,B22,> 500
